# Data reported in the supplement of paper PMC12764529.
# ± gives the half width of the 95% confidence interval.
# Tests used:
# [1] = folding stability dG unfold from chymotrypsin proteolysis; higher = more stable
# In short: (§1)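 Unfolding free energy was derived, per protease or combined, against a sequence-predicted unfolded-state K50 and a shared folded-state K50, starting from K50 inferred by Bayesian fitting of sequencing counts. Digestion with trypsin and chymotrypsin was carried out on designed mini-proteins under 80 residues without cysteine in a PA-tagged cDNA display construct. Only designs with AlphaFold2 dimer inter-PAE above 15 were kept.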
# [2] = folding stability dG unfold from trypsin proteolysis; higher = more stable
# In short: as §1
# [3] = folding stability dG unfold (combined trypsin and chymotrypsin); higher = more stable
# In short: as §1
Sequence,folding stability dG unfold [1] [kcal/mol],folding stability dG unfold [2] [kcal/mol],folding stability dG unfold [3] [kcal/mol]
SAGGSAGGSAGGSGVLNIDEVWEDPESDLYTVVTTGEDEGTRVFVFDKNGKLLAEADLPSAGGSAGGSAGGS [r4_259_TrMRF],0.405 ± 0.12,0.274 ± 0.034,0.443 ± 0.1
SSEKEVEVTIKIPLYYERPDGTIEEYDIEIKVKVKIDNGGFIAENLEEAIREVLEKLNIPEGHPDAPYFNKS [r1_175_TrMRF],0.155 ± 0.48,1.72 ± 0.19,1.02 ± 0.33
SAGGKEYRNPENGQKIPPGDTEEEREKHAREHAKPVIVPIEIPIVIKFGDVIFPIPITFEIPLTPGGSAGGS [r16_387_TrROS],-0.0327 ± 0.28,0.0408 ± 0.054,0.058 ± 0.32
SMKEVEKREFPDGTTVTFSKSSSPVITIKVTTYSPVPNTSELSSSESTYTFPLPPGKPLTLEEVLKKVLESA [r9_614_JUSTAS],1.38 ± 0.21,0.54 ± 0.035,1.02 ± 0.13
SAGGSAGGSAGSMIEEAVEAAKASGDPDVTVDLETPEGRVTVTVTVDPATGTVTVTTSPESAGGSAGGSAGG [r17_475_JUSTAS],2.21 ± 0.077,1.21 ± 0.033,1.86 ± 0.091
SAGGSAGGSAGIEIHVMEDPDGRWWLMITIKVKYKVRNPEDGDPIFEFEVTYTIMIWLKASAGGSAGGSAGG [r17_124_TrROS],5.9 ± 0.17,4.3 ± 0.24,> 6
SAGKDEKLVKVIVKFNDKTFEVVVKEEDLKKLVESGILKVVGKIPGKNIVAIKVEVPPPKGDPVGPTPVSAG [r5_868_TrMRF],2.82 ± 0.14,2.08 ± 0.24,2.5 ± 0.17
SAGGSAGGSSPDWSVKKSTVTVTITFPEEKYFEPETKKEVAKRPVITIEIEIEVVETLPASLISAGGSAGGS [r12_600_JUSTAS],1.44 ± 0.096,1.65 ± 0.067,1.63 ± 0.19
SAGGSAGGSMKLTLESASPDPNKVTYTIKFPGGETLTEELPEEEIEKRSKELGWNIKLFGPTKSAGGSAGGS [r12_676_JUSTAS],0.098 ± 0.42,-0.0326 ± 0.29,-0.0928 ± 0.28
SMKVVKLYTDPEGRVVIEITLPKPDGTPVSEEEAKAIADEIAAELKPKYPNATFEITYDPKTGVVTITIGSA [r9_485_JUSTAS],2.51 ± 0.053,3.49 ± 0.13,2.97 ± 0.1
SAGGSAGGSAGPEITVVKAPDEGYYYLIKLKVTYTLRDPETTAPLAEFEVEYYFLDRGSASAGGSAGGSAGG [r17_124_TrMRF],4.91 ± 0.12,3.3 ± 0.28,4.58 ± 0.47
SAGGSAPDDVEVEIKNIHYNPNWGYIMITIKVDGPVDSIEIELPNGWEISVMRDKDGTMTIMFPFPSAGGSA [r15_736_TrROS],3.29 ± 0.18,2.43 ± 0.1,3.15 ± 0.32
SAGGSAGGSAGGSPKVYVELRFKLPNNLYVEIRYEIDPEKPGYVDWEVRLFDENGNPLGSAGGSAGGSAGGS [r4_297_TrMRF],4.74 ± 0.096,3.61 ± 0.23,4.56 ± 0.16
SAGGKTIWIPMPPGDPEKFAKNIADEILEEAQKQGENVDVKITIQYPDGQYMRITIDGNGKIDKIVPWSAGG [r13_965_TrROS],0.652 ± 0.31,0.333 ± 0.2,0.636 ± 0.31
SAGGSAEEIARKLAEELAEEGEEVEVEVVEVEVEKVDGKEKVIRIRVKVKLPNGEELELELEIKLDELSAGG [r13_215_TrROS_Hall],2.18 ± 0.28,2.38 ± 0.16,2.43 ± 0.24
SAGGSAGGWITPDAAKEFADKWGFDDVNVEVLDVDPNNNYVRVKVTARNPKNGNERPIGEFWFPSAGGSAGG [r6_699_TrROS],1.46 ± 0.045,0.585 ± 0.056,1.2 ± 0.066

Sequence,folding stability dG unfold [1] [kcal/mol],folding stability dG unfold [2] [kcal/mol],folding stability dG unfold [3] [kcal/mol]
SAGGSAGGKAKIKKIEVELNEDGTLKVTAYDEETNEKITLEVKLPKPKPVYFDEEKLKEELEKKSAGGSAGG [r6_627_TrROS_Hall],0.963 ± 0.14,-0.313 ± 0.19,0.629 ± 0.19
SAGGSAIKLPPGEEYTIIMRNPQNGRPFKVPIKRVDPGQIQIEIENPKNGEKQKFTIPANDIEIVKSAGGSA [r15_381_TrROS],-0.896 ± 0.8,0.0718 ± 0.074,-0.194 ± 0.16
SAGGSAGGTIIIEVDTREDALEAARALAEALLPPGYRVEIVSVEEVDGRVYVAIEVRPVPEEELSAGGSAGG [r6_72_TrROS_Hall],3.26 ± 0.078,2.43 ± 0.12,3.17 ± 0.12
SAPFTATETVVTEEEDPATGLTRIPVEMTVDDHPVTGEGVRDPADPSRVSFSITFPDSDLTLTGEEPLPSAG [r14_178_JUSTAS],-0.0428 ± 0.11,0.491 ± 0.036,0.312 ± 0.048
SAGGSAGGSSLLVLRELADGGVALHLIDVEPDEPVGVETVLDEFRELHPDTPPLPVLILRPDPSAGGSAGGS [r12_262_TrMRF],-0.127 ± 0.14,0.251 ± 0.031,0.115 ± 0.073
SAGGSAGGSDMTMTYIIPLPDYAIVISFKIEITEVEYNPENGKPVKFRFDIEIKIEVFPPGDLSAGGSAGGS [r12_809_TrROS],4.68 ± 0.19,3.46 ± 0.21,4.38 ± 0.29
SAGMARIIPNPPVIEVVRKDGSKLVIPPEEIEELRAALEAKGGPYTPEEIAEAIRKLFPDYEVSIVPASAGG [r19_46_TrMRF],-0.0899 ± 0.17,-0.284 ± 0.38,-0.109 ± 0.22
SAMTPEFFETIKEASREGDIAAVLEAAEAIKTEFPDTGLTVDVVIEPREDDRFVIEVRVDYPPNLEGLASAG [r14_690_TrMRF],-0.212 ± 0.11,-0.142 ± 0.039,-0.0704 ± 0.18
SAGGSAGGSAGGLVAKVYRDGKEAVFYFDSPEEMVESIRPLFPDGKEVKVEVTTPEELFSAGGSAGGSAGGS [r10_1167_TrMRF],0.22 ± 0.27,-0.677 ± 0.16,0.0392 ± 0.24
SAGGSAGGSAGGEIKGKKFKIVKIVEVRYDKETKEFYVRIYIEDTNEIITVRLEDLPEELSAGGSAGGSAGG [r7_304_TrROS_Hall],2.29 ± 0.025,1.83 ± 0.077,2.25 ± 0.18
SAGMTITVPGNVTVNVVITAYKFDENGNLIGPYTLVKPITVPENSTITIDLPNDEPNVVIIEIKAIPASAGG [r19_295_TrMRF],4.81 ± 0.073,3.16 ± 0.15,4.42 ± 0.18
SAGGMKIEVEVSDSDIESAAERIAKEVYEKIKAEGKNEDVEVTLTLPNGTRYRIVVDGKGNVKEIIESSAGG [r13_965_JUSTAS],3.79 ± 0.16,3.07 ± 0.17,3.74 ± 0.25
SAGGMGRARLYELEIEVDLHPDETIEGALRRLLGLREDEEILEVEAEVDPVNGKVRIRAVVLVRDPETSAGG [r13_828_TrMRF],4.22 ± 0.032,2.47 ± 0.087,3.85 ± 0.081
SAGGSAMTIEIVVPTLEAIEKLAEETGAEVVEVRFFEEEGLVVVRIKVPESKEELLEKIREALGLESAGGSA [r15_118_TrROS_Hall],2.1 ± 0.092,2.17 ± 0.069,2.11 ± 0.1
SAGGSAGGPIVIKVKSLEEAKELVEKLAKELTPENVKVEIKEVFEPENSYYVVIEIKTASPEEESAGGSAGG [r6_72_TrMRF],2.51 ± 0.097,2.85 ± 0.14,2.65 ± 0.22
